This note sets out measurements from patent US20210238281A1 (INSTITUT NATIONAL DE LA SANTE ET DE LA RECHERCHE MEDICALE …, published 2021).

Holding throughout (assay): ELISA, IgG aggregated with anti-IgG F(ab')2-HRP on coated FcγR
One assay concerns the target T1, murine FcγRI (murine, UniProt P26151 25-297).
T1 construct: also called FcγRIA; CD64
T1 sequence (looked up): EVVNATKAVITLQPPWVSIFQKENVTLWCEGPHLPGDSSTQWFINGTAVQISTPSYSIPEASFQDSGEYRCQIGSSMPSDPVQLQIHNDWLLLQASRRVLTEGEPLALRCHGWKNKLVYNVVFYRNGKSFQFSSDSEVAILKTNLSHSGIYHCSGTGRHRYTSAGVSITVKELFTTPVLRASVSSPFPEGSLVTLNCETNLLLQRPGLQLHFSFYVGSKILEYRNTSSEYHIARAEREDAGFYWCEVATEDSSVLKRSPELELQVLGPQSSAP
As for the experimental part:
(§1) The binding of the 8-18C5-WT and 8-18C5-Del antibodies to human or murine FcγRs was measured by ELISA after incubation, with the F(ab′)2 of goat anti-human IgG HRP for 2 h at room temperature (at a final concentration of 0.5 μg/ml for each molecule) with gentle stirring. The IgGs aggregated to the F(ab′)2 were then incubated with gentle agitation for 1 h at 30° C. on the Maxisorp or NiNTA immunoplates previously coated with the FcγR and saturated with PBS-BSA 4%.

The next assay addresses T2, murine FcγRIII (murine, UniProt P08508 31-215).
T2 sequence (looked up): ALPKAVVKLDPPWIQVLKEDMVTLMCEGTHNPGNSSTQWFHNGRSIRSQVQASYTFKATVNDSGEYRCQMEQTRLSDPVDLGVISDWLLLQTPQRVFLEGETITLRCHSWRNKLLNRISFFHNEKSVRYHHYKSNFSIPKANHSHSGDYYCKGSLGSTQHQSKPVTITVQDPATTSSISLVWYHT
As for the experimental part: as §1

A further assay addresses T3, murine FcγRIV (murine, UniProt A0A0B4J1G0 21-203).
T3 sequence: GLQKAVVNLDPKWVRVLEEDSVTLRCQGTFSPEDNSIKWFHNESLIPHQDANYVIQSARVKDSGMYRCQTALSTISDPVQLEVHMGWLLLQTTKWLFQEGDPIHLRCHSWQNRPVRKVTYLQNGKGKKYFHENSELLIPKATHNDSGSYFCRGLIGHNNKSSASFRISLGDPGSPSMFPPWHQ
The procedure:
as §1

The next assay addresses T4, murine FcγRIIB (murine, UniProt P08101 30-207, limits assumed).
T4 sequence (looked up): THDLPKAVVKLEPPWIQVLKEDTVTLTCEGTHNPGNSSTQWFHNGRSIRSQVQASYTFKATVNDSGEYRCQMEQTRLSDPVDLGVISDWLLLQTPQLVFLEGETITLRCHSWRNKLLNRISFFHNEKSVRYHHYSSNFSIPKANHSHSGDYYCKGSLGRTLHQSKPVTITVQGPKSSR
The procedure:
as §1

B1: recombinant murine monoclonal antibody 8-18C5 (8-18C5-WT) (antibody, mouse IgG1, kappa)
heavy: EVKLHESGAGLVKPGASVEISCKATGYTFSSFWIEWVKQRPGHGLEWIGEILPGRGRTNYNEKFKGKATFTAETSSNTAYMQLSSLTSEDSAVYYCATGNTMVNMPYWGQGTTVTVSSAKTTPPSVYPLAPGSAAQTNSMVTLGCLVKGYFPEPVTVTWNSGSLSSGVHTFPAVLESDLYTLSSSVTVPSSPRPSETVTCNVAHPASSTKVDKKIVPRDCGCKPCICTVPEVSSVFIFPPKPKDVLTITLTPKVTCVVVDISKDDPEVQFSWFVDDVEVHTAQTQPREEQFNSTFRSVSELPIMHQDWLNGKEFKCRVNSAAFPAPIEKTISKTKGRPKAPQVYTIPPPKEQMAKDKVSLTCMITDFFPEDITVEWQWNGQPAENYKNTQPIMNTNGSYFVYSKLNVQKSNWEAGNTFTCSVLHEGLHNHHTEKSLSHSPGK
light: DIELTQSPSSLAVSAGEKVTMSCKSSQSLLNSGNQKNYLAWYQQKPGLPPKLLIYGASTRESGVPDRFTGSGSGTDFTLTISSVQAEDLAVYYCQNDHSYPLTFGAGTKLEIKRADAAPTVSIFPPSSEQLTSGGASVVCFLNNFYPKDINVKWKIDGSERQNGVLNSWTDQDSKDSTYSMSSTLTLTKDEYERHNSYTCEATHKTSTSPIVKSFNRNEC
notes: Murine IgG1 (consensus IGHG1*01 constant domain) produced in HEK or YB2/0 cells; also called mAb 8-18C5; YB2
Take B1: the binding result with murine FcγRI was “no binding (tested: 0.5 µg/ml)”; in the assay with murine FcγRIII, “binds”; with murine FcγRIV, “no binding (tested: 0.5 µg/ml)”; with murine FcγRIIB it was “binds”.

B2: 8-18C5-Del variant of the recombinant murine antibody 8-18C5 (antibody, mouse IgG1, kappa)
heavy: EVKLHESGAGLVKPGASVEISCKATGYTFSSFWIEWVKQRPGHGLEWIGEILPGRGRTNYNEKFKGKATFTAETSSNTAYMQLSSLTSEDSAVYYCATGNTMVNMPYWGQGTTVTVSSAKTTPPSVYPLAPGSAAQTNSMVTLGCLVKGYFPEPVTVTWNSGSLSSGVHTFPAVLESDLYTLSSSVTVPSSPRPSETVTCNVAHPASSTKVDKKIVPRDCGCKPCICTVPEVSSVFIFPPKPKDVLTITLTPKVTCVVVDISKDDPEVQFSWFVDDVEVHTAQTQPREQFNSTFRSVSELPIMHQDWLNGKEFKCRVNSAAFPAPIEKTISKTKGRPKAPQVYTIPPPKEQMAKDKVSLTCMITDFFPEDITVEWQWNGQPAENYKNTQPIMNTNGSYFVYSKLNVQKSNWEAGNTFTCSVLHEGLHNHHTEKSLSHSPGK
light: B1 light
modifications: Fc N-glycan highly sialylated (antibody produced in YB2/0 cells); the letters do not carry it.
notes: Murine IgG1, produced in YB2/0 cells; also called m8-18C5-Del
Consider B2, for which the binding result in the assay with murine FcγRI, in the assay with murine FcγRIII, with murine FcγRIV and in the assay with murine FcγRIIB was “no binding (tested: 0.5 µg/ml)” throughout.
